Source: US20180030135A1, “HUMAN MONOCLONAL ANTIBODIES AGAINST OREXIN RECEPTOR TYPE 1” (INSERM (INSTITUT NATIONAL DE LA SANTÉ ET DE LA RECHERCHÉ …, priority 2015, published 2018)
Changes are numbered by the printed parent chain.

B1: C1 antibody (antibody, V domains shown)
VH: EVQLVESGGSLVKPGGSLRLSCAASGFTFSNYYMNWVRQAPGKGLEWISYISGSSRNIYYADFVKGRFTISRDNATNSLYLQMNSLRAEDTAVYYCVRSNYDGMDVWGRGTLVTVSS
VL: QSVLTQPASVSGSPGQSITISCAGTSSDVGGSNYVSWYQQHPGKAPKLMIYSDSYRPSGVSNRFSGSKSGNTASLTISGLQAEDEADYYCSSYTYYSTRVFGGGTKLAVLG
notes: Human anti-OX1R antibody from phage display
B2: C1: human monoclonal anti-OX1R antibody from phage display; VH SEQ ID NO:1, VL SEQ ID NO:2 (antibody, V domains shown)
VH: B1 VH
VL: B1 VL
modifications: Synthetic VH sequence of C1; Synthetic VL sequence of C1

Key:
[1] = target: T1, orexin receptor type 1 (OX1R) (human, UniProt O43613 1-425); test: competitive inhibition of 125I-OxA binding to HEK-OX1R cells
T1 construct: whole, on cells; also called HCTR1; hypocretin receptor type 1
T1 sequence (looked up): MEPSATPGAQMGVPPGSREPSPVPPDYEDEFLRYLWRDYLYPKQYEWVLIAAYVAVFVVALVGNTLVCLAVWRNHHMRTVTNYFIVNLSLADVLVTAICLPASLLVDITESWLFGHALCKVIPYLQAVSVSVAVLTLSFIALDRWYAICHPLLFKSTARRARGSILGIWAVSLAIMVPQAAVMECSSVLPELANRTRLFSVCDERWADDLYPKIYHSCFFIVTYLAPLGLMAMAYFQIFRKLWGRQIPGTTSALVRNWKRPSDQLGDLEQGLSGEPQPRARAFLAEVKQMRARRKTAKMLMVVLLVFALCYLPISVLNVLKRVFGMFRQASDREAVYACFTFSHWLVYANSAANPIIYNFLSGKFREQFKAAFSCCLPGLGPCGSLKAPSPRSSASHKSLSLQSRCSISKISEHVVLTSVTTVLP

rat OX1R = target: T2, rat OX1R (rat, UniProt P56718 1-416); test: told from effects on cells transfected with rat OX1R (FIG. 4)
T2 construct: whole, on cells; also called CHO-ratOX1R; OX1R of rat
T2 sequence (looked up): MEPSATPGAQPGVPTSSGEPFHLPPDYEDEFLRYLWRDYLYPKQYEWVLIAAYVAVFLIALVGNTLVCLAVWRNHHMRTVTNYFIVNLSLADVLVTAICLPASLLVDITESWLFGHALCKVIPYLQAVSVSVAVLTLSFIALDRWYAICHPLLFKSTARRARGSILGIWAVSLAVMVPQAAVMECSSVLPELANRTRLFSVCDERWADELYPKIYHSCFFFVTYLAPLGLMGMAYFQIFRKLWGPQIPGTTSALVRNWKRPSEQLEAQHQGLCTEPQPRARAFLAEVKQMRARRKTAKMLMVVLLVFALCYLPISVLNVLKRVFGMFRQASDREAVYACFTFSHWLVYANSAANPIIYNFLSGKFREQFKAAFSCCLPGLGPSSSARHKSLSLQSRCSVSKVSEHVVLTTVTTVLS

mouse OX1R = target: T3, mouse OX1R (mouse, UniProt P58307 1-416); test: told from effects on cells transfected with mouse OX1R (FIG. 4)
T3 construct: whole, on cells; Legend says HEK-mouseOX1R, the text says CHO cell lines transfected with OX1R of mouse or rat; also called HEK-mouseOX1R; OX1R of mouse
T3 sequence (looked up): T2 sequence (looked up) with H116Q, R205H, F221I, G232A, P245R, S383G

[2] = system: HEK-OX1R cells expressing recombinant OX1R; test: Cell growth of HEK-OX1R cells (cell counting); type: cell-based, human; conditions: 0.1 μM, 48 h
HEK-mouseOX1R = test: Cell growth / apoptosis of cells transfected with mouse OX1R; type: cell-based; conditions: 0.1 μM, 48 h, FIG. 4
Method: Cells were treated for 48 h with 0.1 μM of each compound and then cells were counted. Results were expressed as the percentage of untreated cell number (Control).
The development of antibodies directed against OX1R were produced by a phage display strategy and the antibody selection was performed by using HEK and HEK stably expressing OX1R (HEK-OX1R) cell lines. As a first step, a batch of 7 different antibodies named B4, B10, C1, C2, D4, E7 and H7 was tested for their ability to inhibit the cell growth of HEK-OX1R. […] In contrast, B4, B10, D4, E7 and. […] As previously described orexins (A & B) induced a mitochondrial apoptosis mediated by an entirely novel mechanism, not related to Gq-mediated phospholipase C activation. In fact, orexins induced the tyrosine phosphorylation of two immunoreceptor tyrosine-based inhibitory motifs (ITIMs) located in the OX1R sequence. The resulting phosphorylated receptor could then recruit and activate the phosphotyrosine phosphatase, SHP-2, which is responsible for mitochondrial apoptosis, involving cytochrome c release from mitochondria to cytosol and caspase-3 and caspase-7 activation. Here, we tested the effect of SHP inhibitor (NSC 87877) on the ability of anti-OX1R to inhibit the cellular growth of HEK-OX1R (FIG. 3).

CHO-ratOX1R = test: Cell growth / apoptosis of cells transfected with rat OX1R; type: cell-based; conditions: 0.1 μM, 48 h, FIG. 4
SW48 cells = test: Cell growth of colon cancer cell line SW48; type: cell-based; conditions: 0.1 μM, 48 h
Method: (§1) A. SW48 and AsPC-1 cells. B. LoVo and HCT-116 cells. Cells were treated for 48 h with 0.1 μM of each compound and then cells were counted. Results were expressed as the percentage of untreated cell number (Control).
(§2) We have tested the ability of antibodies to inhibit the cellular growth in cancer cell lines derived from colon cancer (SW48, LoVo and HCT-116 cells) and pancreas cancer (AsPC-1 cells). […] D4 and H7 have a weak effect. […] As previously described (see above) orexins are able to induce a mitochondrial apoptosis in cancer cell lines. We test the ability of antibodies to induce apoptosis in HEK-OX1R cells and colonic cancer cell line LoVo. […] This effect was dose-dependent. Indeed when HEK-OX1R cells were treated with 0.01μM of C2 antibody, cell apoptosis was only of 6±0.7% of total cells.

LoVo cells = test: Cell growth of colon cancer cell line LoVo; type: cell-based; conditions: 0.1 μM, 48 h
Method: as §1, §2

AsPC-1 cells = test: Cell growth of pancreas cancer cell line AsPC-1; type: cell-based; conditions: 0.1 μM, 48 h
Method: as §1, §2

[3] = system: HEK-OX1R cells expressing recombinant OX1R; test: Apoptosis in HEK-OX1R cells (annexin V-PE binding, Guava nexin kit); type: cell-based, human; conditions: 0.1 μM, 48 h

| Molecule | IC50 [1] [µM] | binding result (rat OX1R) | binding result (mouse OX1R) | inhibition of HEK-OX1R cellular growth in the presence of SHP inhibitor NSC 87877 ([2]; 50 μM NSC 87877) | reduction of HEK-OX1R cell number (cellular growth inhibition) ([2]; cells counted, versus untreated cells) | promotion of apoptosis of cells transfected with OX1R of mouse (cross reaction) (HEK-mouseOX1R) | promotion of apoptosis of cells transfected with OX1R of rat (cross reaction) (CHO-ratOX1R) | cell growth inhibition in SW48 cells (SW48 cells) | cell growth inhibition in LoVo cells (LoVo cells) | cell growth inhibition in AsPC-1 cells (AsPC-1 cells) | apoptosis in HEK-OX1R cells, % of total cells [3] [%] |
| --- | --- | --- | --- | --- | --- | --- | --- | --- | --- | --- | --- |
| B1 | ~5 | binds | binds |  |  |  |  |  |  |  |  |
| B2 |  |  |  | totally reversed | about 46%±3 | able to promote apotosis | able to promote apotosis | inhibit the cell growth in SW48 cells similarly to OxB | inhibit the cell growth in LoVo cells similarly to OxB | cell growth inhibition similar to OxB effect | 12±1 |
